Data as given in the DeepSol protein solubility set.

Test: soluble on expression in E. coli; label from the status in PepcDB or PDB records

| Sequence | soluble on expression in E. coli |
| --- | --- |
| MGSDKIHHHHHHMREDFTNEIVTESLNEAGILVEKPSEIRRHFDDLQFDSRKVTKKNTLFVVKGAFKIEYLTASLLDKISGIVTSRKEKINIPNLPHWIVSNSQIALAVLSAEFFGHPEKKLKILGITGTKGKTSSTYMAYSLLDRLTNHQTAMFSTIDTFLGRGIKFKSELTTPESYELFSNMKKALDNGNKYLVMEVSSQSYLKNRVFGIHFKVGAFLNISPDHIGINEHPTFADYLAHKKMLAENSDVFVSNIDDAHGQEFIDHAKSFGAKTVSVSENKKADVNFHIKKADLDESIFYLTEKGNSQEFLLDIPGVFNIYNASVAIAMVREMGFKPEKAKKALAELQIPGRMVKIKTKSHGLIIVDYAHNGQAVTTLLTFLKSQHQGGKIIIVLGSPGDKGEDRRSQFGEVISKFVDVAYLTTDDPGTEDPHQINNQIRKAISNPNVELHEELDRSKAIQEAIKKANINDLVVLAAKGEDAFQKTNHVDVPYLGDKKVAEEFLAEIEKV | not soluble |
| MGSDKIHHHHHHMILFEWGTYNALSTLKQAALLGTRITEIPPAVLSRRLPSGYYESYKKLGGEYFTSILAHGPYYSLSSEKGLKGHLSAIEKATLCGAEIYNYHLGKRVGDDLNYHLEVLKKFSEVNNEMIYSPEPATNIGEFGTLDELEELIKAAKEEDIKIIPSLQLENIFLNELGVYEKDDLDEAAEKADVDWWLKIFRRMDKISDYIMHFRFSQVIGLKYGKRFYKKRVPLGKGYPPVEPLTEALATYLVDNATRGGFKKVLFVYTGLPEVKYRDLIDLYAMIMKKSIDKLMSRESQVEYGDFYKVMSSEEEE | not soluble |
| MIKKCLFPAAGYGTRFLPITKTIPKEMLPIVDKPLIQYAVEEAMEAGCEVMAIVTGRNKRSLEDYFDTSYEIEHQIQGTNKENALKSIRNIIEKCCFSYVRQKQMKGLGHAILTGEALIGNEPFAVILADDLCISHDHPSVLKQMTSLYQKYQCSIVAIEEVALEEVSKYGVIRGEWLEEGVYEIKDMVEKPNQEDAPSNLAVIGRYILTPDIFEILSETKPGKNNEIQITDALRTQAKRKRIIAYQFKGKRYDCGSVEGYIEASNAYYKKRLLEHHHHHH | soluble |
| MLAFGPVPSRRLGRSLGVNNIPAKICSYACVYCQIGKTLKMEVERRKFYEPERIYNDVSAKVKSGERIDYITFVPDGEPTLDINLGKEAEMLRDFGIKLAILTNSSLIWREDVREDLMNFDLVSLKLDAVSDDIWRKVNRPHKSLSLEKILEGMLDFRKEFKGTIITETMLINIDYGEELEKIATFLKELKPDKAYIAIPTRPPAESWVKPASEVIINKAYQLFSEALGEERVEYLIGYEGNAFAFTGNVEEDLLSITAVHPMREEAVRELLRKAGASWDVVEKMIKEGKLIELEYNGKKFYMRKLGSR | not soluble |
| MLSTTTIGFPRIGNQRQLKFAMESYFKGDSGEAELLAVAHKVQSDAWALQKAAGIAVIGLDGTLYDQVLDTITWLGAIPPRFKHLSGLQRYYAMARGGAALDMSKFFDTNYHYLVPELGPDVLGPATAAGAPLQPDFSGPLDKLARGQAVVGRERAVPILIGPVTFVSLSRGCELPLDQAVARLLPTYCALLQQLAAAGAPEVQLHEPVLATSEGAGMRAEFETAYAQMAQAAGSVPLHLVTYYDDLGAAYPWAVQLPVAAVTLDFLGPPGAAVPSQTLALLQQHGFPADKRLGAGVVDGRSVWKDDGTAVALLRALLDTGAVSSDRLVVTSSAPLQHLPYDLGLELEAPKTPEAEPHLPPALAARLGFAKQKVEEIVSVARLAASPAAAAAAAGHGAVVQLQRLQQGKGVEDHTADIPAEWFSRPKPYDVRREQQLQLPAFPTTTIGSFPQTAEVRRLRQQLKSGRLTQAEYEGLIAGHIAHAVGVQEALGIDVLVHGEAERTDMVEYFGMQLGGMLFTRAGWVQSYGSRCVRPPLVVDDITYRGPMTCWEYKVASAYTRKPVKGMLTGPVTILNWSFPRKDISRAAQAMQLGLALRQEVAALEAAGCTIIQVDDPALREGLPLKRERWASYLSWAVDAFRLCTGVAAAGTQVVTHLCYSDFQDILPAIDRMDADVLTIENSRSDNAMMAALAAAGYGRDIGPGVYDVHSPVVPSVEFIKSRIRSFVDSGILSGRYDRIWVNPDCGLKTRGWPETIAALRNMVEAAAQARAELQLAGGAAVAPVAGGVEAAGKGAALGAAAGTSRCVDCCH | not soluble |
| MGSDKIHHHHHHMIHITSLDDGLELFKALGSDIRIQILKILLENNQMSMNQIANELNISNGALTGHIKKLEECGLISASNDSSGHGNQKLCSLIQDRILVEIEKPIDLSNVYNTSIKVGQFSSHNICPTCGLATSSFVIGELDDVRYFDHPDHFNADIMWFTKGYVEYVIPNLIPRNQKITQLSLSAEISSEAPGIDNDWPSDISFYINDTLVGTWTSPGDYGDVRGMFTPEWWPQNWNQYGLLKLLVINHKGTFIDGLKISDITTSELKLDYTSTIRFRIAVEEDSAHVGGLTIFGKSFGNYDQDIVVSINYEPLDTEKNTK | not soluble |
| MGSDKIHHHHHHNGNGDKSLENWIWDAACSIRGAQEAAKYKDFILPLIFTKRLCDVFDDELNRIAEKVGSRAKAFKLVAMDHNLVRFYLPLQPQNPDDPVWSVIRKLSDKIGEKLTDYLREIAKANPLLNGIINRVDFNATTHGQRDLDDDRLSNLIEKISEKRLGLKDVEPDIIGRSYEYLIRKFAEGSGQSAGEFYTPKEVGLIMAKIMQPEPGMTIYDPCCGSAGLLIKCQLVLQESQGATEKFAPLQLYGQEYTPNTWAMANMNMIIHDMEGKIEIGDTFRHPKFMQAGKLAQFERVVANPMWNQKWFTEKDYDGDELGRFPKGAGYPGSSADWGWVQHILASLDKTGKAAIVLDTGAASRGSGNANKNKEKEVRKWFVEQDLIEGVIYLPQNLFYNTSAPGILLFLNRAKPKERQGKLFFINASLVFAKGDPKNYIPDEEIERIANTFLTWREEEKFSLIVYKDKIAHNDYNISPSRYIHITEEEDFRPIAEILEELEVLEKEAAETNK | not soluble |
| MKVRYLTSALLLAMTSGLAAAASVDIRHEYVPDRDGDEHRDRIYVSHRFDNQIGFSVEAKWNYKDGHMGNAGHETGVSYRWKATDNFSLTPGINIDASPSGASVFKYNLTGAYKINDEWDVAARIRHGYKNTDDSRYNQLNLYANRKFEWGKLGVEAEYKDIHGGEGGWKDKGHDQLIDFKGEYTKLESGVIPFFAIAAITHKGDGSEFKDEYVPRFRVGLKYNF | not soluble |
| MQGLESLTYYTENYPPLNFAKEDGKPAGIAVDLLLEAAAAVNVTLNLDQIFVQPWPRSYRSALLKQDGVLFSTTRTTHRENLFNWVGPIADIKVVVLARKSSQIKVNDPIELGNYRIGVIRDDIGEQQLLQLEHHHHHH | not soluble |
| MSRFWSRWYSGLVSCTARVIMIDLNHLDTIANRLSDLLPPALYESRGELQTLFKDVLQAGLAKLDLVTREEFEIQRVILLSTREKLETLLHTLVLLEDRLTDQGKNLEHHHHHH | not soluble |
| VKLTDVDFAVEASGMVRAFNQAGVLDVSDVHVAQRLCALAGESDERVALAVAVAVRALRAGSVCVDLLSIARVAGHDDLPWPDPADWLAAVRASPLLADPPVLHLYDDRLLYLDRYWREEEQVCADLLALLTSRRPAGVPDLRRLFPTGFDEQRRAAEIALSQGVTVLTGGPGTGKTTTVARLLALVAEQAELAGEPRPRIALAAPTGKAAARLAEAVRREMAKLDATDRARLGDLHAVTLHRLLGAKPGARFRQDRQNRLPHNVIVVDETSMVSLTLMARLAEAVRPGARLILVGDADQLASVEAGAVLADLVDGFSVRDDALVAQLRTSHRFGKVIGTLAEAIRAGDGDAVLGLLRSGEERIEFVDDEDPAPRLRAVLVPHALRLREAALLGASDVALATLDEHRLLCAHRDGPTGVLHWNRRVQAWLAEETGQPPWTPWYAGRPLLVTANDYGLRVYNGDTGVVLAGPTGLRAVISGASGPLDVATGRLGDVETMHAMTIHKSQGSQVDEVTVLMPQEDSRLLTRELLYTAVTRAKRKVRVVGSEASVRAAIARRAVRASGLRMRLQSTGCG | soluble |
| MRQSGSWMTIWDDRILEIIHEEGNGSPKELEDRDEIRISKSSVSRRLKKLADHDLLQPLANGVYVITEEGEAYLNGEYDAGKERYINRGNSTDEENGADAPDGPGINS | soluble |
| GPGSMTEYKKLCAILAQLREEVTSLSCAFEGGEGQDTVALHSLSTSIQKLVTNAQPRLLKILRKATETDPNRQIYNEAMCAAIKQLFDDFCELLSCLFGVPMEEMVLSEGKINFEDSPSISWTEDVHNNYLLHLAQTEAWKKRIATNIADLVLFEEETRTVYFAEERKARETLLQIKRNEKTNILHMLKEREAAKWEAEVRRRNDEHKGLMNASSFYGVQNIATVLLRIPEPFRKLLAGNMAQLVRALRTTPEDPNIRRIRCNNRRVMMDYSHVVFCGECETCRILVAAAEILWYIMGYRVEYSTAPTSSLRTVIENNPPILLPCGRYASEHAIAVIGFEEYSERFFTLHEPDPMQDSDEWMVWYATLEALLARLEDCLV | not soluble |
